The results in this text go back to the nanobody polyreactivity screen of Harvey et al. (2022).

This data set can be described thus: yeast display, Sf9 membrane polyspecificity reagent, FACS + sequencing; frameworks hold sequencing errors. In short, it runs like this: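 Genes from sorted yeast were amplified by colony PCR, read by MiSeq 2 × 250 sequencing and filtered on CDR length. These cells carried a synthetic nanobody library in Saccharomyces cerevisiae BJ5465 and were sorted by FACS into low and high (top ~1%) gates on anti-HA and streptavidin fluorescence. Polyreactivity is labelled according to the gate of origin.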
Regarding “QVQLVESGGGLVQAGGSLRLSCAASGRTFVDYAMGWYRQAPGKERELVAAINTGGRTKYADSVKGRFTISRDNAKITVYLQMNSLKPEDTAVYYCAARKQYGGVRGDYWGQGTQVTVSS”, the “polyreactivity (PSR sort gate)” value is “high polyreactivity”.

Take “QVQLVESGGGLVQAGGSLRLSCAASGRTFVDYVMGWYRQAPGKERELVAAISRSGSTYYADSVKGRFTISRDNAKNTVYLQMNSLKPEDTAVYYCNVEYLRTYYILSDYWGQGTQVTVSS”: the “polyreactivity (PSR sort gate)” value is reported as “low polyreactivity”.

Turning to “QVQLVESGGGLVQAGGSLRLSCAASGRTFVFNAMGWYRQAPGKERELVAAITKNGGSTYYADSVKGRFTISRDNAKNPVYLQMNSLKPEDTAVYYCAGRRGYPFYYWGQGTQVTVSS”, the “polyreactivity (PSR sort gate)” value is “low polyreactivity”.

In the case of “QVQLVESGGGLVQAGGSLRLSCAASGRTFVFYAMGWYRQAPGKERELVAAISSSGGSTYYADSVKGRFTISRDNAKNTVYLQMNSLKPEDTAVYYCNADFYSVGSQYGYWGQGTQVTVSS”, the “polyreactivity (PSR sort gate)” value is “high polyreactivity”.

Regarding “QVQLVESGGGLVQAGGSLRLSCAASGRTFVGNAMGWYRQAPGKERELVATITGSGGRTYYADSVKGRFTISRDNAKNTVYLQMNSLKPEDTAVYYCAAKRSRYRYDYWGQGTQVTVSS”, the “polyreactivity (PSR sort gate)” value was “high polyreactivity”.

Consider “QVQLVESGGGLVQAGGSLRLSCAASGRTFVGNAMGWYRQAPGKERELVATITRRGGSTYYADSVKGRFTISRDNAKNTVYLQMNSLKPEDTAVYYCSAGSQPGRKYYYWGQGTQVTVSS”, for which the “polyreactivity (PSR sort gate)” value is recorded as “high polyreactivity”.

For “QVQLVESGGGLVQAGGSLRLSCAASGRTFVGNGKGWYRLAPGKERELLASISFSGGAGTYYADSVKGRFTISRDNAKYTVYLQMNSLKPEDTAVYYCAKRYVTPTYRRYYWGPGTQVTVSS”, the “polyreactivity (PSR sort gate)” value was “high polyreactivity”.

For “QVQLVESGGGLVQAGGSLRLSCAASGRTFVGYAMGWYRQAPGKEREFVAAISYRGGRTYYADSVKGRFTISRDNAKNTVYLQMNSLKPEDTAVYYCAAEYRSNHGGVDYWGQGTQVTVSS”, the “polyreactivity (PSR sort gate)” value was “high polyreactivity”.

For “QVQLVESGGGLVQAGGSLRLSCAASGRTFVGYAMGWYRQAPGKERELVAAISIGGGRTYYADSVKGRFTISRDNAKNTVYLQMNSLKPEDTAVYYCAAVFRQSNRHGGYDYWGQGTQVTVSS”, the “polyreactivity (PSR sort gate)” value is reported as “high polyreactivity”.

With “QVQLVESGGGLVQAGGSLRLSCAASGRTFVGYPMGWCRQAPGKERELVAAIDLSDGSTSYADSVKGRFTISRDHAKNTVYLQMISLTPEHTAVYYCAKTSANVYAGAHDSWGQGTQVTVSS”, the “polyreactivity (PSR sort gate)” value is reported as “low polyreactivity”.

Turning to “QVQLVESGGGLVQAGGSLRLSCAASGRTFVGYVMGWDRQAPGKERELVAAISTSGGRTYYADSVKGRFTISRDNAKNTGYLQMNSLKPEDTAVYYCNAVSKQPIGYEYWGQGSQVTVSS”, the “polyreactivity (PSR sort gate)” value is listed as “high polyreactivity”.

Regarding “QVQLVESGGGLVQAGGSLRLSCAASGRTFVHYTMGWYRQAPGKERELVAAISGTGTSTYYADSVKGRFTISRDNAKNTVYLQMNSLKPEDTAVYYCARDPFFGFHIGYPRRDYWGQGTQVTVSS”, the “polyreactivity (PSR sort gate)” value was “low polyreactivity”.

For “QVQLVESGGGLVQAGGSLRLSCAASGRTFVIYAMGWYRQAPGKERELVAAISKGGGSTYYADSVKGRFTISRDNAKNTVYLQMNSLKPEDTAVYYCAAGYGTYYQYSRFDYWGQGTQVTVSS”, the “polyreactivity (PSR sort gate)” value is recorded as “high polyreactivity”.

“QVQLVESGGGLVQAGGSLRLSCAASGRTFVIYDMGWYRQAHGKERELVAGITRSGGSTYADSVKGRFTISRDNAKNTVYLQMNSLKPEDTAVYYGARRKLYHKSPYDYWGQGTQVTVSS”: the “polyreactivity (PSR sort gate)” value is “low polyreactivity”.

As to “QVQLVESGGGLVQAGGSLRLSCAASGRTFVKNTMGWYRQATGKERELVAAISSSGGSTYYADSVKGRFTISRHNAKNTVYLQMNSLNPEDTAVYFCAVSYPYKHAGGWYAYNYWGQGTQVTVSS”, the “polyreactivity (PSR sort gate)” value is given as “high polyreactivity”.

For “QVQLVESGGGLVQAGGSLRLSCAASGRTFVLNVMGWYRQAPGKERELVADITSGDNTYYADSVKGRFTISRDNAKNTVYLQRNSLKPEDTAVYYCAADGWFYFGYDYWGQGTQVTVSS”, the “polyreactivity (PSR sort gate)” value is “low polyreactivity”.

On to “QVQLVESGGGLVQAGGSLRLSCAASGRTFVLYTMGWYRQAPGKERELLAVGSTYYADSVKGRFTISRDNAKNTVYLQMNSLKPEDTAVYYCAVDLYWSYFNGALGYRYYYWGQGTQVTVSS”, for which the “polyreactivity (PSR sort gate)” value is on record as “high polyreactivity”.

In the case of “QVQLVESGGGLVQAGGSLRLSCAASGRTFVLYTMGWYRQAPGKERELVAAISGSGGRSYYADSVKGRFTISRDHAKNSVYLQMNSLKPEDTAVYYCAAYGQGLPLYGYWGQGTQVTVSS”, the “polyreactivity (PSR sort gate)” value is listed as “high polyreactivity”.

“QVQLVESGGGLVQAGGSLRLSCAASGRTFVNYALGWYRQAPGKERELVAAISGGGGTNYADSVKGRFTISRDNAKNTVYLQMNSLKPEDTAVYYCNAVPSQHDEFDYWGQGTQVTVSS”: the “polyreactivity (PSR sort gate)” value is listed as “low polyreactivity”.

On to “QVQLVESGGGLVQAGGSLRLSCAASGRTFVPYAMGWYRQAPGKEREFVAAISSRVASTYYADSVKGRFTISRDNAKNTVYLQMNSLKPEDTAVYYCARTNPAYSIYDYWGQGTQVTVSS”, for which the “polyreactivity (PSR sort gate)” value is “low polyreactivity”.

For “QVQLVESGGGLVQAGGSLRLSCAASGRTFVPYAMGWYRQAPGKERELVARIDSSGGSTYYADSVKGRFTISRDNAKNTVYLQMNSLKPEDTAVYYCAAVFYYWSLRSYYWGQGTQVTVSS”, the “polyreactivity (PSR sort gate)” value is listed as “high polyreactivity”.

Turning to “QVQLVESGGGLVQAGGSLRLSCAASGRTFVQNAMGWYRQAPGKERELVASIRYRDGSTYYADSVKGRFTISRDNAKNTVYLQMNSLKPEDTAVYYCAAYLPGWELREYGYWGQGTQVTVSS”, the “polyreactivity (PSR sort gate)” value is recorded as “high polyreactivity”.

Consider “QVQLVESGGGLVQAGGSLRLSCAASGRTFVQYVMGRYRQAPGKERELVAAITSSGGSTYADSVKGRFTISRDNAKNTVYLQMNSLKPEDTAVYYSAADYLDGVGDVEHDYWGQGTQVTVSS”, for which the “polyreactivity (PSR sort gate)” value is on record as “low polyreactivity”.

For the sequence “QVQLVESGGGLVQAGGSLRLSCAASGRTFVRNAMGWYRQAPGKERELVAAISVDGSSTYYADSVKGRFTISRDNAKNTVYLQMNSLKPEDTAVYYCNADWDYRDFYDITYDYWGQGTQVTVSS”, the “polyreactivity (PSR sort gate)” value was “low polyreactivity”.

For the sequence “QVQLVESGGGLVQAGGSLRLSCAASGRTFVRNTMGWYRQAPGKERELVAAISGGGSTYYADSVKGRFTISRDNAKNTVYLQMNSLKPEDTAVYYCAATTRRQGGKRFDYWGQGTQVTVSS”, the “polyreactivity (PSR sort gate)” value is listed as “high polyreactivity”.

In the case of “QVQLVESGGGLVQAGGSLRLSCAASGRTFVRYAMGWSRQAPGKERELVAAITKSGGSTSYADSVKGRFTISRDNAKNTVYLQMNSLKPEDTAVYYCATRGYYQRSSPMDYWGQGTQVTVSS”, the “polyreactivity (PSR sort gate)” value is given as “high polyreactivity”.

“QVQLVESGGGLVQAGGSLRLSCAASGRTFVRYAMGWYRQAPGKERELVAAISLRGGRTYYADSVKGRFTISRDYANNTVYLQMNSRNPEDTAVYYCAARSYPTGASFDYWGQGTQVTVSS”: the “polyreactivity (PSR sort gate)” value is “high polyreactivity”.

Consider “QVQLVESGGGLVQAGGSLRLSCAASGRTFVRYAMGWYRQAPGKERELVAAISWSGGSTYYADSVKGRFTISRDNAKNTVYLQMNSLKPADTAVYYCAAYYRGRNFDYCGQGTQVTVSS”, for which the “polyreactivity (PSR sort gate)” value is reported as “high polyreactivity”.

Regarding “QVQLVESGGGLVQAGGSLRLSCAASGRTFVSNAMGWYRQAPGKERELVATITVSSDSTYYADSVKGRFTISRDNAKNTVYLQMNSLKPEDTAVYYCAARNPTWSFQFDYWGQGTQVTVSS”, the “polyreactivity (PSR sort gate)” value is reported as “low polyreactivity”.

With “QVQLVESGGGLVQAGGSLRLSCAASGRTFVSYAMGWSRQAPGKERELVATITGSTGGTYYADSVKGRFTISRDNAKNTVYLQMNSLKPEDTAVYYCNKDYYYNPGNVASGYDYWGQGTQVTVSS”, the “polyreactivity (PSR sort gate)” value is listed as “low polyreactivity”.
